In general, koff refers to the rate constant with which the complex falls apart. Lower therefore signals a long-lived complex.

The values that follow come from patent US20160033500A1 (SYSMEX, published 2016).

Test [1] has as its target T1, human serum albumin (human, UniProt P02768 25-609).
T1 construct: Adsorbed on an unmodified silicon nitride sensor chip (HSA sensor chip) from a 0.2 µM solution; also called HSA
Nature of the test: reflection interference spectroscopy, HSA sensor chip, 1000 µM peptide.

The target in test [2] is T1, human serum albumin. Briefly: coefficient b of the two-exponential dissociation fit (Equation I), HSA sensor chip, 1000 µM peptide.
Test [3] has as its target T1, human serum albumin. Briefly: reflection interference spectroscopy, HSA sensor chip, 2 µM peptide.
Description: Then, a running buffer (0.1 M sodium phosphate buffer (pH 6.9)) was injected into a flow path formed between the substrate and the flow cell at a flow rate of 100 μL/min for 30 minutes or more so as to equilibrate the surface of the substrate. […] In injecting the running buffer or the sample, a liquid feeding pump for high-performance liquid chromatograph [product name: Prominence UFLC, manufactured by Shimadzu Corporation] and an autosampler [product name: Chromaster, manufactured by Hitachi, Ltd.] were used. As a result, a solid phase carrier having HSA immobilized on the surface thereon (hereinafter also referred to as “HSA sensor chip”) was obtained. In injecting the HSA solution into the flow path, the wavelength variation Δλ of bottom wavelength of the spectral reflectivity curve of the reflected light when the flow path was irradiated with white light was measured with time, whereby a sensorgram showing the time-dependent change of the wavelength variation Δλ was obtained.
The target of test [4] is T1, human serum albumin. Nature of the test: reflection interference spectroscopy, HSA sensor chip, 100 µM peptide.
Description: (§1) The wavelength variation Δλ of the bottom wavelength of the spectral reflectivity curve of the reflected light (the layer thickness change amount Δλ) when the flow path was irradiated with white light was measured with time, whereby a sensorgram was obtained.
Test [5] concerns the target T1, human serum albumin. Nature of the test: reflection interference spectroscopy, HSA sensor chip, 10 µM peptide.
Description: as §1
The target in test [6] is T1, human serum albumin. Briefly: coefficient b of the two-exponential dissociation fit (Equation I), HSA sensor chip, 10 µM peptide.
Description: as §1
For test [7], the target named is T1, human serum albumin. Briefly: reflection interference spectroscopy, HSA sensor chip, 10 µM lysozyme.
The target of test [8] is T1, human serum albumin. Nature of the test: reflection interference spectroscopy, HSA sensor chip, 1 µM peptide.
For test [9], the target named is T1, human serum albumin. Nature of the test: reflection interference spectroscopy, HSA sensor chip, 50 µM peptide.

In [1], (His) 3 (peptide) displayed a koff of 0.00257 s⁻¹ and a maximum layer thickness change amount Δλ of 0.027 nm. The molecule further had a b value in test [2] of 0.344.

B1: inter-α-trypsin inhibitor heavy chain 4 (peptide)
peptide: GESRNRNVHSGSTFFKYYLQGAKIPKPEASFS
notes: Named as the protein, but a 32-residue peptide was used; also called ITIH4
For B1, the binding result in [3] is recorded as “binds”.

B2: Kininogen (peptide)
peptide: HNLGHGHKHERDQGHGHQR
notes: Named as the protein, but a 19-residue peptide was used
Consider B2, for which the koff in test [4] was found to be 0.00493 s⁻¹.

B3: (His) 10 (peptide)
peptide: HHHHHHHHHH
With B3, in test [5], the koff amounted to 0.00073 s⁻¹ and the “maximum layer thickness change amount Δλ” value came out at 0.086 nm. In addition, in test [6], the b value stood at 0.093.

B4: Lysozyme (enzyme)
chain: KVYGRCELAAAMKRLGLDNFRGYSLGNWVCAAKFESNFNTHATNRNTDGSTDYGILQINSRWWCNDGRTPGSRNLCNIPCSALLSSDTIASVNCAKKIVSDGNGMNAWVAWRKRCKGTDVNAWTRGCRL
Molecule B4 displayed a koff in [7] of 0.0066 s⁻¹.

B5: ELN 11mer (peptide)
peptide: GVPGLGVGAGV
For the molecule B5, the koff in [8] stood at 0.00016 s⁻¹.

B6: ACTH partial peptide at the 1-41 positions (peptide)
peptide: GPSYSMEHFRWGKPVGKKRRPVKVYPNGAEDESAEAFPLEF
notes: Synthetic peptide from Biologica Co, Ltd; also called ACTH41
B6: the binding result in test [3] is “binds”.

B7: ACTH partial peptide at the 1-24 positions (peptide)
peptide: SYSMEHFRWGKPVGKKRRPVKVYP
notes: Synthetic peptide from Biologica Co, Ltd; also called ACTH24
For the molecule B7, in test [3], the binding result is reported as “binds”.

B8: ACTH15 (peptide)
peptide: YSMEHFRWGKPVGKK
For the molecule B8, in test [5], the koff was found to be 0.0115 s⁻¹ and the “maximum layer thickness change amount Δλ” value is 0.061 nm. The same molecule gave a b value in [6] of 0.029.

B9: (Lys) 10 (peptide)
peptide: KKKKKKKKKK
Consider B9, for which, in test [4], the koff is 0.0002 s⁻¹.

B10: fibrinogen α (peptide)
peptide: DEAGSEADHEGTHSTKRGHAKSRPV
notes: Named as the protein, but a 25-residue peptide was used
Consider B10, for which the binding result in test [3] was “binds”.

B11: histidine eicosa peptide (peptide)
peptide: HHHHHHHHHHHHHHHHHHHH
notes: also called (His)20
As for B11, the binding result in test [3] is reported as “binds”.

B12: IS 13mer (peptide)
peptide: AWAVARLSQRFPK
For the molecule B12, the koff in test [9] was 0.0171 s⁻¹.

B13: arginine decapeptide (peptide)
peptide: RRRRRRRRRR
notes: also called (Arg)10
As for B13, in [3], the binding result was “binds”.
